Experimental data from US20040171005A1, “Codon-optimised nucleic acid coding for apoaequorin and uses thereof” (priority 2001, published 2004).

Experiments:
HEK293 cells = test: Aequorin luminescence (calcium flux) after Ionomycin stimulation of transiently transfected cells; format: cell-based; conditions: for Peak Relative Light Units (RLU) following Ionomycin Stimulation: HEK293 cells transiently transfected, 48 hours post transfection; for fold increase in RLU relative to wild type aequorin: number in parenthesis; for fold increase in luminescent output (RLU) with the codon optimised aequorin: text summary over 1 and 2 μM CaCl2, Ionomycin stimulation, versus wild type
Description: CHOK1 and Phoenix (HEK293 derived) cells were grown in Ham's F12 and DMEM respectively. The medium was supplemented with10% foetal calf serum, 2 mM glutamine, penicillin and streptomycin 100 μg/ml.
Cells were seeded in Costar 6 well plates at a density of 5×10^5 18-24 hours prior to transfection. On the day of transfection the cells were 85-90% confluent. Plasmids, cytaeqHA1(9aa)pcDNA3#2 and hucytaeqHA(9aa)pcDNA3#20, were transfected into the cells using Lipofectamine Plus reagents. A co-transfection with EGFP (Clontech) allowed transfection variation between wells to be ascertained. A modification to the standard protocol from Life Technologies was used. In summary, 2 μg of DNA (1 μg of each for co-transfections) diluted in 400 μl of HamsF12+12 μl lipofectamnine plus reagent was incubated for 15 minutes at room temperature. 8 μl of Lipofectamine reagent +400 μl of HamsF12 medium was also incubated for 15 minutes at room temperature. The two mixtures were combined and incubated for a further 15 minutes before being aspirated onto the cells containing 1.6 mls of Ham's F12 medium. The plates were incubated for 3 hours at 37° C. 5% CO2. The transfection reagents were replaced with Ham's F12 complete medium and the cells incubated for 24 hours. At 24 hours the cells were transferred to 96 well plates. 48 hours post transfection the 96 wells were rinsed in PBS and replaced with 50 μl of DMEM (without phenol red) containing 1% heat inactivated FCS and 2.5 μm hcp coelenterazine. The cells were incubated at 37° C. 5% CO2 for 3 hours. The wells were aspirated of the coelenterazine mix and replaced with 175 μl of PBS containing either 1 μM or 2 μM CaCl2. The plates were transferred to Tropix TR717 luminometer for stimulation. 2 μM of ionomycin (25 μl), a calcium ionophore, was injected into the wells and the reaction recorded over 60 seconds. 1:
Numbers in parenthesis represent the fold increase in RLU relative to wild type aequorin.

HEK 293 cells = test: Immunoblotting of HA-tagged aequorin expression (3F10 antibody, pixel quantification); format: cell-based; conditions: western blot against HA epitope; HEK 293 lysates 48 hours post transfection; ImageQuant pixel quantification
Description: Expression of recombinant protein was verified by immuoblotting using Anti-HA-Peroxidase, High Affinity (3F10) monoclonal antibody (Roche). This antibody recognizes the HA peptide sequence […] derived from the […] hemagglutinin protein (Kolodziej &Young, Methods Enzymol. 194:508-511, […]). HEK 293 cells were transiently transfected with the codon optimised and the wild type aequorin constructs. Cell lysates were prepared 48 hours post transfection, proteins (130 μg) separated by SDS-PAGE electrophoresis, transferred to nylon membrane and stained with a 1:500 dilution of 3F10 antibody. Protein expression was quantitated using pixel quantification in ImageQuant software (Molecular Dynamics) and indicated a 8-fold increase in expression of cythuAEQ over cytAEQ.

Molecule	Peak Relative Light Units (RLU) following Ionomycin Stimulation (HEK293 cells; 1 μM CaCl2)	Peak Relative Light Units (RLU) following Ionomycin Stimulation (HEK293 cells; 2 μM CaCl2)	fold increase in RLU relative to wild type aequorin (HEK293 cells; 1 μM CaCl2)	fold increase in RLU relative to wild type aequorin (HEK293 cells; 2 μM CaCl2)	fold increase in luminescent output (RLU) with the codon optimised aequorin (HEK293 cells; listed as codon optimised aequorin)	fold increase in luminescent output (RLU) with the codon optimised aequorin (HEK293 cells; listed as codon-optimised sequence)	fold increase in expression over non-humanised (wild type) aequorin (HEK 293 cells)
Wild type: Wild-type jellyfish apoaequorin gene SEQ ID NO: 2 with HA1 epitope in pcDNA3, used as control (nucleic acid, listed as Aequorea victoria, HA1 epitope fused, in pcDNA3) DNA: ATGAAGCTTACATCAGACTTCGACAACCCAAGATGGATTGGACGACACAAGCATATGTTCAATTTCCTTGATGTCAACCACAATGGAAAAATCTCTCTTGACGAGATGGTCTACAAGGCATCTGATATTGTCATCAATAACCTTGGAGCAACACCTGAGCAAGCCAAACGACACAAAGATGCTGTAGAAGCCTTCTTCGGAGGAGCTGGAATGAAATATGGTGTGGAAACTGATTGGCCTGCATATATTGAAGGATGGAAAAAATTGGCTACTGATGAATTGGAGAAATACGCCAAAAACGAACCAACGCTCATCCGTATATGGGGTGATGCTTTGTTTGATATCGTTGACAAAGATCAAAATGGAGCCATTACACTGGATGAATGGAAAGCATACACCAAAGCTGCTGGTATCATCCAATCATCAGAAGATTGCGAGGAAACATTCAGAGTGTGCGATATTGATGAAAGTGGACAACTCGATGTTGATGAGATGACAAGACAACATTTAGGATTTTGGTACACCATGGATCCTGCTTGCGAAAAGCTCTACGGTGGAGCTGTCCCCTAA	944 RLU	734 RLU	–	–	–	–	–
Codon optimised: Codon-optimised (humanised) apoaequorin coding sequence SEQ ID NO: 3 with HA1 epitope, in pcDNA3 expression plasmid (nucleic acid, HA1 epitope fused, in pcDNA3; humanised apoaequorin) DNA: ATGAAGCTGACCCCCGACTTCGACAACCCCAAGTGGATCGGCCGCCACAAGCACATGTTCAACTTCCTGGACGTGAACCACAACGGCCGCATCAGCCTGGACGAGATGGTGTACAAGGCCAGCGACATCGTGATCAACAACCTGGGCGCCACCCCCGAGCAGGCCAAGCGCCACAAGGACGCCGTGGAGGCCTTCTTCGGCGGCGCCGGCATGAAGTACGGCGTGGAGACGGAGTGGCCCGAGTACATCGAGGGCTGGAAGCGCCTGGCCTCCGAGGAACTGAAGCGCTACAGCAAGAACCAGATCACCCTGATCCGCCTGTGGGGCGACGCCCTGTTCGACATCATCGACAAGGACCAGAACGGCGCCATCTCCCTGGATGAGTGGAAGGCCTACACCAAGTCCGTCGGCATCATCCAGTCCTCCGAGGACTGCGAGGAGACGTTCCGCGTGTGCGACATCGACGAGAGCGGCCAGCTGGACGTGGACGAGATGACCCGCCAGCACCTGGGCTTCTGGTACACCATGGACCCCGCCTGCGAGAAGCTGTACGGCGGCGCCGTGCCCTAA	18008 RLU	15561 RLU	19 fold	21 fold	19-21 fold	> 20 fold	~8 fold
